PMC4092090, “Investigation of a MMP-2 Activity-Dependent Anchoring Probe for Nuclear Imaging of Cancer” (PLoS ONE, 2014)
Read-outs that look alike come from different tables or passages of the source.

Columns and labels:
[1] = system: HT1080 tumor bearing mice; parameters: species or system mouse (Balb/c nu-nu); settings: mouse, in vivo, iv; for Radioactivity biodistribution, Blood / Radioactivity biodistribution, Heart / Radioactivity biodistribution, Intestine / Radioactivity biodistribution, Kidneys / Radioactivity biodistribution, Liver / Radioactivity biodistribution, Lung / Radioactivity biodistribution, Muscle / Radioactivity biodistribution, Pancreas / Radioactivity biodistribution, Spleen / Radioactivity biodistribution, Stomach / Radioactivity biodistribution, Tumor / T/B (tumor to blood ratio): 37 kBq
Description: Female Balb/c nu-nu mice (5 weeks old, Japan SLC, Inc., Shizuoka, Japan) were housed under a 12-h light/12-h dark cycle and given free access to food and water. HT1080 cells (5×10^6 cells/100 μl PBS (-)/mouse) were subcutaneously inoculated into the right hind leg of Balb/c nu-nu mice. Animals were used for experiments two weeks after inoculation when the mean tumor size was 5.7±2.2 mm along the major axis. […]3000 and […] (37 kBq, 100 μl in PBS including 3% bovine serum albumin and 0.1% Tween 80) were injected intravenously into the tail vein of tumor bearing mice. The mice were sacrificed at various post-injection time points (n = 3 for each time point), and the organs of interest including the tumor tissues were collected for determination of the weights. The radioactivity of each sample was measured with a NaI well-type scintillation counter. From fitting to the two phase decay curves for blood radioactivity data analyzed by GraphPad Prism 6 (GraphPad Software, San Diego, CA), whole body pharmacokinetic parameters such as blood half-lives, distribution volume, mean residence time and total clearance were calculated for each of the probes and the values compared. Simple pharmacokinetic analysis using a single tissue compartment model was applied to the biodistribution data to calculate rate constants (K1 and k2) for radioactivity transfer from blood to tumor and clearance from tumor to blood by PMOD version 3.2. In addition, MDAP3000 (7.4 MBq in 200 μl) was injected intravenously into the tail vein of tumor bearing mice for metabolite analysis in tumors excised 3, 6, and 24 hr post injection (n = 2 each). Tumor homogenates were prepared on ice and insoluble material was removed by centrifugation after methanol treatment. The resulting supernatant was analyzed by RP-HPLC.

[2] = system: HT1080 tumor bearing mice; parameters: species or system mouse (Balb/c nu-nu); settings: mouse, in vivo, iv
Description: (§1) […]3000 and […] (37 kBq, 100 μl in PBS including 3% bovine serum albumin and 0.1% Tween 80) were injected intravenously into the tail vein of tumor bearing mice. The mice were sacrificed at various post-injection time points (n = 3 for each time point), and the organs of interest including the tumor tissues were collected for determination of the weights. The radioactivity of each sample was measured with a NaI well-type scintillation counter. From fitting to the two phase decay curves for blood radioactivity data analyzed by GraphPad Prism 6 (GraphPad Software, San Diego, CA), whole body pharmacokinetic parameters such as blood half-lives, distribution volume, mean residence time and total clearance were calculated for each of the probes and the values compared. Simple pharmacokinetic analysis using a single tissue compartment model was applied to the biodistribution data to calculate rate constants (K1 and k2) for radioactivity transfer from blood to tumor and clearance from tumor to blood by PMOD version 3.2. In addition, MDAP3000 (7.4 MBq in 200 μl) was injected intravenously into the tail vein of tumor bearing mice for metabolite analysis in tumors excised 3, 6, and 24 hr post injection (n = 2 each). Tumor homogenates were prepared on ice and insoluble material was removed by centrifugation after methanol treatment. The resulting supernatant was analyzed by RP-HPLC.

HT1080 tumor xenograft = system: HT1080 tumor xenograft; parameters: species or system mouse (Balb/c nu-nu); settings: mouse, in vivo, iv
Description: as §1

[3] = system: HT1080 human fibrosarcoma cells; assay: Cellular uptake study; format: cell-based; settings: 5×10^5 HT1080 cells, FBS-free DMEM, 37 kBq probe, 30 min incubation, radioactivity counting, Fig. 3a
Description: HT1080 human fibrosarcoma cells were purchased from American Type Culture Collection (ATCC, Manassas, VA USA) and cultured in DMEM with low glucose (Invitrogen), 10% fetal bovine serum (FBS), and penicillin/streptomycin. MMP-2 cDNA was cloned into the pENTR vector (Invitrogen) and inserted into the pLenti6 vector (Invitrogen) as previously described, [7]. […] Protein quantitation was performed by BCA protein assay (Thermo Fisher Scientific, Inc. Rockford, IL USA). The cellular uptake study of MDAP3000 pretreated with activated MMP-2 (63 nM) in the presence or absence of GM6001 (100 µM) was performed as described above.

“Palmitoyl-Dap(p-SCN-Bn-DTPA-^111In)-10-Adc-Gly-Pro-Leu-Gly-Val-Arg-Gly-Lys(ivDde)-PEG1000 [MDAP1000]” was tested, and the “Blood clearance (in words)” value [1] was “rapid blood clearance”, the “Tumor accumulation (in words)” value [1] was “low tumor accumulation” and the “Radioactivity biodistribution, Blood” value ([1]; 0.25 h) was 46.93±5.71 % injected dose per gram. For the same substance, the “Radioactivity biodistribution, Heart” value ([1]; 0.25 h) was 9.40±2.03 % injected dose per gram, the “Radioactivity biodistribution, Intestine” value ([1]; 0.25 h) was 4.18±0.58 % injected dose per gram and the “Radioactivity biodistribution, Kidneys” value ([1]; 0.25 h) was 14.24±1.90 % injected dose per gram. For the same substance, the “Radioactivity biodistribution, Liver” value ([1]; 0.25 h) was 34.27±5.87 % injected dose per gram, the “Radioactivity biodistribution, Lung” value ([1]; 0.25 h) was 21.23±2.65 % injected dose per gram and the “Radioactivity biodistribution, Muscle” value ([1]; 0.25 h) was 2.15±0.57 % injected dose per gram. For the same substance, the “Radioactivity biodistribution, Pancreas” value ([1]; 0.25 h) was 4.28±0.41 % injected dose per gram, the “Radioactivity biodistribution, Spleen” value ([1]; 0.25 h) was 8.06±0.23 % injected dose per gram and the “Radioactivity biodistribution, Stomach” value ([1]; 0.25 h) was 1.03±0.15 % injected dose per organ. The “Radioactivity biodistribution, Tumor” value ([1]; 0.25 h) was 1.70±0.85 % injected dose per gram, the “T/B (tumor to blood ratio)” value ([1]; 0.25 h) was 0.04±0.01 and the “Radioactivity biodistribution, Blood” value ([1]; 1 h) was 24.81±3.60 % injected dose per gram. The “Radioactivity biodistribution, Heart” value ([1]; 1 h) was 8.43±1.19 % injected dose per gram, the “Radioactivity biodistribution, Intestine” value ([1]; 1 h) was 8.97±0.28 % injected dose per gram and the “Radioactivity biodistribution, Kidneys” value ([1]; 1 h) was 11.66±1.17 % injected dose per gram. For the same substance, the “Radioactivity biodistribution, Liver” value ([1]; 1 h) was 42.27±8.44 % injected dose per gram, the “Radioactivity biodistribution, Lung” value ([1]; 1 h) was 12.56±1.70 % injected dose per gram and the “Radioactivity biodistribution, Muscle” value ([1]; 1 h) was 1.94±0.33 % injected dose per gram. The “Radioactivity biodistribution, Pancreas” value ([1]; 1 h) was 5.52±1.05 % injected dose per gram, the “Radioactivity biodistribution, Spleen” value ([1]; 1 h) was 7.72±1.86 % injected dose per gram and the “Radioactivity biodistribution, Stomach” value ([1]; 1 h) was 1.13±0.21 % injected dose per organ. The “Radioactivity biodistribution, Tumor” value ([1]; 1 h) was 1.90±0.38 % injected dose per gram, the “T/B (tumor to blood ratio)” value ([1]; 1 h) was 0.08±0.02 and the “Radioactivity biodistribution, Blood” value ([1]; 3 h) was 10.58±1.28 % injected dose per gram. The “Radioactivity biodistribution, Heart” value ([1]; 3 h) was 7.47±0.45 % injected dose per gram, the “Radioactivity biodistribution, Intestine” value ([1]; 3 h) was 20.39±4.51 % injected dose per gram and the “Radioactivity biodistribution, Kidneys” value ([1]; 3 h) was 10.56±1.49 % injected dose per gram. The “Radioactivity biodistribution, Liver” value ([1]; 3 h) was 50.70±7.52 % injected dose per gram, the “Radioactivity biodistribution, Lung” value ([1]; 3 h) was 6.17±0.88 % injected dose per gram and the “Radioactivity biodistribution, Muscle” value ([1]; 3 h) was 2.00±0.38 % injected dose per gram. For the same substance, the “Radioactivity biodistribution, Pancreas” value ([1]; 3 h) was 4.50±1.45 % injected dose per gram, the “Radioactivity biodistribution, Spleen” value ([1]; 3 h) was 10.01±3.77 % injected dose per gram and the “Radioactivity biodistribution, Stomach” value ([1]; 3 h) was 1.14±0.33 % injected dose per organ. For the same substance, the “Radioactivity biodistribution, Tumor” value ([1]; 3 h) was 2.65±0.33 % injected dose per gram, the “T/B (tumor to blood ratio)” value ([1]; 3 h) was 0.25±0.05 and the “Radioactivity biodistribution, Blood” value ([1]; 6 h) was 5.85±0.74 % injected dose per gram. For the same substance, the “Radioactivity biodistribution, Heart” value ([1]; 6 h) was 5.71±0.61 % injected dose per gram, the “Radioactivity biodistribution, Intestine” value ([1]; 6 h) was 13.23±3.92 % injected dose per gram and the “Radioactivity biodistribution, Kidneys” value ([1]; 6 h) was 9.53±1.08 % injected dose per gram. The “Radioactivity biodistribution, Liver” value ([1]; 6 h) was 30.08±5.98 % injected dose per gram, the “Radioactivity biodistribution, Lung” value ([1]; 6 h) was 4.38±0.32 % injected dose per gram and the “Radioactivity biodistribution, Muscle” value ([1]; 6 h) was 1.68±0.46 % injected dose per gram. The “Radioactivity biodistribution, Pancreas” value ([1]; 6 h) was 5.53±1.77 % injected dose per gram, the “Radioactivity biodistribution, Spleen” value ([1]; 6 h) was 10.00±2.61 % injected dose per gram and the “Radioactivity biodistribution, Stomach” value ([1]; 6 h) was 0.73±0.06 % injected dose per organ. The “Radioactivity biodistribution, Tumor” value ([1]; 6 h) was 3.18±0.69 % injected dose per gram, the “T/B (tumor to blood ratio)” value ([1]; 6 h) was 0.55±0.15 and the “Radioactivity biodistribution, Blood” value ([1]; 24 h) was 5.26±0.94 % injected dose per gram. The “Radioactivity biodistribution, Heart” value ([1]; 24 h) was 4.11±0.44 % injected dose per gram, the “Radioactivity biodistribution, Intestine” value ([1]; 24 h) was 4.90±0.90 % injected dose per gram and the “Radioactivity biodistribution, Kidneys” value ([1]; 24 h) was 7.01±0.45 % injected dose per gram. The “Radioactivity biodistribution, Liver” value ([1]; 24 h) was 8.89±1.11 % injected dose per gram, the “Radioactivity biodistribution, Lung” value ([1]; 24 h) was 2.63±0.28 % injected dose per gram and the “Radioactivity biodistribution, Muscle” value ([1]; 24 h) was 1.55±0.13 % injected dose per gram. The “Radioactivity biodistribution, Pancreas” value ([1]; 24 h) was 6.21±3.76 % injected dose per gram, the “Radioactivity biodistribution, Spleen” value ([1]; 24 h) was 4.82±1.10 % injected dose per gram and the “Radioactivity biodistribution, Stomach” value ([1]; 24 h) was 0.49±0.09 % injected dose per organ. The “Radioactivity biodistribution, Tumor” value ([1]; 24 h) was 3.33±0.44 % injected dose per gram, the “T/B (tumor to blood ratio)” value ([1]; 24 h) was 0.65±0.15 and the “Blood half-life, Fast” value [2] was 4.0×10 min. The “Blood half-life, Slow” value [2] was 43.3 h, the “Clearance (total clearance)” value [2] was 0.0083 mL/min and the Distribution volume [2] was 1.71 mL. The Mean residence time [2] was 210 min, the “K1, rate constant for transfer from blood to tumor, Mean” value (HT1080 tumor xenograft) was 0.00071 mL/g/min and the “k2, rate constant for clearance from tumor to blood, Mean” value (HT1080 tumor xenograft) was 0.0011 min⁻¹. The “Cellular accumulation (radioactivity in tumor cells)” value [3] was “high radioactivity accumulation”.
